{"source": "paper PMC10602602", "about": "“The apiosyltransferase celery UGT94AX1 catalyzes the biosynthesis of the flavone glycoside apiin” (Plant Physiology, 2023)", "proteins": {"B1": {"name": "AgApiT (UGT94AX1) (Apium graveolens) (protein)", "chain": "MGSENAKTRILMFPYLAYGHISPFVELAKQLTKRNFHIYLCSTPINLASVKKRADEDDNIQLLEFHLPSSPELPPRYHCSTGLPAELNPVLLRVFENAGPVFVDILKDIKPDLVIYDFMPSWPAQVALSLNIQVVYFSIFPVPMCCLPLHDSKRAGEKFPYQNVVIPQSPNRFALMASRNLLNCFEKTCKFALVKGLREVEGKYIDLLSDLADKDIIAVGPLVHVSMEKEDDKTKSILKWLDSKEKSSVVFVCFGSESYLSAEETIEMANALETTKCNFIWAMKFPQEKKDSVQLPDGFVERVGELGMILDGWVPQTMILGHPSTGVFLSHCGWSSVNESMKFGVPIIGMPMRYDLALIAKLVVEIGVGMEIVKNNQGKFDREGIVNVLRKVLEDGSEVKAKATELSLKINEKGEEDLDKAAEELMQICRNKKEIQG", "notes": "full ORF, codon-optimized synthetic gene, pCold ProS2, E. coli BL21(DE3); His/ProS2 tag cut off with HRV3C protease; 49 kDa"}, "B2": {"name": "AgApiT (UGT94AX1) (Apium graveolens; I139V) (protein)", "chain": "B1 chain with I139V", "notes": "as for B1"}, "B3": {"name": "AgApiT (UGT94AX1) (Apium graveolens; L356Q) (protein)", "chain": "B1 chain with L356Q", "notes": "as for B1"}}, "note": "Where a chain is given by its changes, count along the chain named. Names may count otherwise.", "data": [{"substrate": "O=c1cc(-c2ccc(O)cc2)oc2cc(O[C@@H]3O[C@H](CO)[C@@H](O)[C@H](O)[C@H]3O)cc(O)c12", "test": "reversed-phase HPLC glycosyltransferase assay, Michaelis-Menten nonlinear fit", "assay_type": "biochemical, Apium graveolens", "settings": "donor UDP-Api, 200 mM Tris-HCl, 50 mM NaCl, pH 7.0, 23 °C", "source_text": "(§1) reversed-phase HPLC glycosyltransferase assay, Michaelis-Menten nonlinear fit on AgApiT (UGT94AX1)", "units": {"Km": "µM", "kcat": "s⁻¹", "kcat/Km": "M⁻¹ s⁻¹"}, "values": [{"protein": "B1", "Km": "15 ± 3", "kcat": "0.00088 ± 5e-05", "kcat/Km": "58 ± 15"}, {"protein": "B2", "Km": "17 ± 1", "kcat": "0.00083 ± 7e-05", "kcat/Km": "50 ± 18"}, {"protein": "B3", "Km": "52 ± 9", "kcat": "0.00021 ± 2e-05", "kcat/Km": "2.1 ± 0.3"}]}, {"substrate": "O=c1ccn([C@@H]2O[C@H](COP(=O)(O)OP(=O)(O)O[C@H]3OC[C@](O)(CO)[C@H]3O)[C@@H](O)[C@H]2O)c(=O)[nH]1", "test": "reversed-phase HPLC glycosyltransferase assay, Michaelis-Menten nonlinear fit", "assay_type": "biochemical, Apium graveolens", "settings": "acceptor apigenin 7-O-glucoside, 200 mM Tris-HCl, 50 mM NaCl, pH 7.0, 23 °C", "source_text": "as §1", "units": {"Km": "µM", "kcat": "s⁻¹", "kcat/Km": "M⁻¹ s⁻¹"}, "values": [{"protein": "B1", "Km": "8.6 ± 0.6", "kcat": "0.00065 ± 1e-05", "kcat/Km": "76 ± 6"}, {"protein": "B2", "Km": "17 ± 1", "kcat": "0.00047 ± 1e-05", "kcat/Km": "28 ± 3"}, {"protein": "B3", "Km": "390 ± 60", "kcat": "0.00014 ± 1e-05", "kcat/Km": "0.36 ± 0.08"}]}]}
